Drawing on patent WO2009082624A2, this text covers EC50, STAT3 phosphorylation in Baf3/KZ134/huIL-23R/huIL-12Rβ1 Clone 6 cells (ZymoGenetics IL-23) and EC50, STAT3 phosphorylation in Baf3/KZ134/huIL-23R/huIL-12Rβ1 Clone 6 cells (eBioscience IL-23) for one substance.

The target of the test is human IL-23 receptor (huIL-23R/huIL-12Rβ1) on Baf3/KZ134/huIL-23R/huIL-12Rβ1 Clone 6 cells (human) (UniProt P42701). Put plainly: cell-based or functional assay.
Chain of human IL-23 receptor (huIL-23R/huIL-12Rβ1) on Baf3/KZ134/huIL-23R/huIL-12Rβ1 Clone 6 cells (human) (chain, as listed by the source, chain 1 of 2, other chains not shown): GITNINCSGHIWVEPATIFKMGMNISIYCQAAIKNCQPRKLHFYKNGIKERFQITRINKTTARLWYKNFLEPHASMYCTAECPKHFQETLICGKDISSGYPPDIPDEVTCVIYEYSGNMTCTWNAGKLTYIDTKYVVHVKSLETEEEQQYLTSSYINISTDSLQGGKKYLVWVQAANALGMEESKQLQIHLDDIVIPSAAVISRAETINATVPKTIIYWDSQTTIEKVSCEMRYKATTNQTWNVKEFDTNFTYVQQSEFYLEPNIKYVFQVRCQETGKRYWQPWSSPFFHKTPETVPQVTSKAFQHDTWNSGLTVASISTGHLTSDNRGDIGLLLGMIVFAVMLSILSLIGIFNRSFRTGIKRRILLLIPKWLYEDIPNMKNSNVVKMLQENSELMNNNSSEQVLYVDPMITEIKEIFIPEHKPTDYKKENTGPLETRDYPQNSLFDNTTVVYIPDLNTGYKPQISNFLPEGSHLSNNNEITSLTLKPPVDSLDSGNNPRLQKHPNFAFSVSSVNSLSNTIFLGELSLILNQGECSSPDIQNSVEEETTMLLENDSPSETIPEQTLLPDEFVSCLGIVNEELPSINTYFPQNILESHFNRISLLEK

With “human IL-23 (p19/p40 heterodimer), recombinant (from UniProt Q9NPF7 20-189; P29460 23-328) (ligand)”, the EC50, STAT3 phosphorylation in Baf3/KZ134/huIL-23R/huIL-12Rβ1 Clone 6 cells (ZymoGenetics IL-23) came to 20 pM and the EC50, STAT3 phosphorylation in Baf3/KZ134/huIL-23R/huIL-12Rβ1 Clone 6 cells (eBioscience IL-23) was found to be 30 pM.
